The values that follow come from article PMC7318843 (Neuron, 2020).

This test deals with biotin-labeled Aβ40 (UniProt P05067 672-711, biotin (position not given)). Kind of test: pull-down.

B1: MDK protein (Midkine), human recombinant (natural protein, UniProt P21741 21-143, looked up)
chain: VAKKKDKVKKGGPGSECAEWAWGPCTPSSKDCGVGFREGTCGAQTQRIRCRVPCNWKKEFGADCKYKFENWGACDGGTGTKVRQGTLKKARYNAQCQETIRVTKPCTPKTKAKAKAKKGKGKD
B1: the binding result was “binds”.
